From PMC11477141, “Chemokine Receptor N-Terminus Charge Dictates Reliance on Post-Translational Modifications for Effective Ligand Capture and Following Boosting by Defense Peptides” (International Journal of Molecular Sciences, 2024)
Read-outs that look alike come from different tables or passages of the source. Where no end group is shown, it is not given here.

What was measured:
CCR1 = biological target: T1, CCR1 (Homo sapiens, UniProt P32246); test: BRET CAMYEL cAMP sensor assay of ligand-induced Gαi signaling via CCR1; assay type: cell-based; conditions: n = 3; for boosting of CCL5-induced Gαi signaling via CCR1 / boosting of CCL7-induced Gαi signaling via CCR1 / effect on CCL3-induced Gαi signaling via CCR1: CHO-K1 cells, 10 µM peptide, chemokine 0-100 nM
T1 construct: expressed in transfected cells; host or cells: CHO-K1, CHO-pgsB618 (GAG-minus), HEK293 WT / DeltaSia / sC
T1 sequence (P32246 1-355): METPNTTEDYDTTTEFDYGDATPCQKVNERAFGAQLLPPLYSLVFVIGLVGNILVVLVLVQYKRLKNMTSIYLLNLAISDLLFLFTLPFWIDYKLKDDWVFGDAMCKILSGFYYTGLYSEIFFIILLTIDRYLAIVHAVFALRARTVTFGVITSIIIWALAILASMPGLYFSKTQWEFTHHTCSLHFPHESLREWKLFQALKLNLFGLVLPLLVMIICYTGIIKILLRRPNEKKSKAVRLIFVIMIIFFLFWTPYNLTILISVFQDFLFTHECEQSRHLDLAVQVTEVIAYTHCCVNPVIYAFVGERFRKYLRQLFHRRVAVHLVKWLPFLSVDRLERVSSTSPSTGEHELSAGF
Description: For quantification of signaling initiated immediate downstream of receptor activation, we used the cAMP binding CAMYEL sensor to perform bioluminescence resonance energy transfer (BRET)-based assays. Shortly, in this assay increased receptor activation leads to an increase in BRET ratio. For detailed information see the Materials and Methods section.
In signaling assays testing the boosting ability of basic peptides, transfected cells were aliquoted into 96-well plates in the presence of 10 µM peptide or PBS vehicle. After R-Luc substrate addition, chemokines were added to reach final concentrations ranging from 0–100 nM (0, 0.1, 1, 10, and 100 nM) and forskolin was applied before reading emission at 475 and 525 nm.
BRET measurements of Gαi signaling and β-arrestin recruitment: Cells were seeded in 6-well plates (500,000 cells/well) and transiently transfected the following day. For BRET measurements of Gαi signaling, cells were transfected with vectors encoding the human chemokine receptors as indicated (160 ng/well) and the CAMYEL sensor (cAMP sensor, YFP-Epac-RLuc) (840 ng/well) using Lipofectamine (6 µL/well). Briefly, DNA was dissolved in 125 µL OPTI-MEM and Lipofectamine was dissolved in 125 µL OPTI-MEM. The DNA and Lipofectamine solutions were combined into a transfection mixture. The transfection mixture was added dropwise to cells incubated in OPTI-MEM (1 mL/well). Transfections were terminated after 5 h by adding 1 mL of fresh culture medium on top of the OPTI-MEM. The following day the cells were loosened from the plates in PBS with 5 mM glucose and subsequently aliquoted in white 96-well iso plates (~25,000 cells/well). When using C21TP variants and defense peptides (hBD2 and histatin), these were added to a final concentration of 10 μM/well, while an equal amount of PBS was added to control cells. The bioluminescence substrate coelenterazine was added to a final conc. of 5 µM. After 10 min, varying ligand concentrations were added. For BRET measurements of Gαi signaling, forskolin was added 5 min after the addition of the ligand, to a final conc. of 5 µM. The plates were kept in the dark at all times. A Perkin Elmer Envision machine was used for measuring the emission signals at 530 and 480 nm. The BRET signal is determined as the ratio eYFP (530 nm)/Rluc (480 nm).
BRET principle with CAMYEL: For quantification of signaling initiated immediately downstream of receptor activation, we used the cAMP binding CAMYEL sensor to perform bioluminescence resonance energy transfer (BRET) based assays. In this assay we measure changes in intracellular cAMP levels in response to receptor activation. Activation of chemokine receptors lead to a decrease in cAMP through inhibition of adenylate cyclase (AC). In the current setup we initially add forskolin that stimulates AC directly to induce an increase in intracellular cAMP, and we then measure the ability of a ligand (chemokine) to counteract the forskolin-induced increase in cAMP. The cAMP sensor (CAMYEL cAMP sensor, YFP-Epac-RLuc) carries the donor Renilla luciferase (Rluc) and the acceptor YFP. Coelenterazine is a substrate for Rluc that will emit light at around 475 nm upon enzymatic cleavage catalyzed by Rluc. When Rluc and YFP are in close proximity, the energy from the emitted light from coelenterazine can be transferred to YFP, resulting in an excitation of YFP, leading to a BRET signal around 525 nm. EPAC is a cAMP binding protein that changes conformation upon cAMP binding. During low cAMP concentrations, Rluc and YFP are near each other, and a strong BRET signal at 525 nm is obtained. When cAMP levels increase, cAMP will bind to EPAC, creating a conformational change, separating Rluc and YFP, reducing the BRET ratio, and increasing the emission from Rluc at 475 nm. Thus, by measuring the ratio between the cAMP-bound (475 nm) and the cAMP-free (525 nm) state of CAMYEL we obtain a measure of receptor activation. […]

naked CCR1 N-terminus = naked CCR1 N-terminus (Homo sapiens, UniProt P32246); test: Fluorescence polarization binding to FAM-labeled CCR1 N-terminal peptide; conditions: FAM-labeled CCR1 N-terminal peptide
Description: (§1) Fluorescence polarization (FP) assay: The carboxyfluorescein (FAM)-labeled peptides representing the CCR1 and CCR5 N-termini functioned as the probes for quantifying the interaction between the receptor N-terminus and C21TP^81-111. The probe was diluted in FP buffer (1:3, PBS:MilliQ) and 10 µL was added to a final concentration of 250 nM per well in a black 384-well plate (Corning). The C21TP^81-111 peptide (2 mM) was diluted using a two-fold dilution series; 30 µL of the peptide was added to each well to final concentrations ranging from 12.21 nM to 100 µM. Blanks containing 10 µL probe and 30 µL FP buffer were included. The plate was spun down at 1000 rpm for 1 min and the FP signal was measured on a Flex station using SoftMax Pro software 7.0. Each experiment was conducted in triplicate. The binding curves were generated by plotting the FP signal, expressed as millipolarization units (mP), against C21TP^81-111 concentration. The dissociation constant (Kd) value was calculated using GraphPad Prism 9.
(§2) Probes: • CCR1: (5,6-FAM)-[…], • CCR5: (5,6-FAM)-ADYQVSSPIYDINYYTSEP.

naked CCR5 N-terminus = test: Fluorescence polarization binding to FAM-labeled CCR5 N-terminal peptide; design: species or system human
Description: as §1, §2

CCL5 (Homo sapiens) = CCL5 (Homo sapiens) (UniProt P13501); conditions: cited from earlier work
CCL7 (Homo sapiens) = CCL7 (Homo sapiens) (UniProt P80098); conditions: cited from earlier work
CCL2 (Homo sapiens) [1] = biological target: CCL2 (Homo sapiens) (UniProt P13500); conditions: cited from earlier work
CCL2 (Homo sapiens) [2] = biological target: CCL2 (Homo sapiens) (UniProt P13500); conditions: cited from earlier work; remark: listed apart in the source
CCR2 D25A/D27A mutant = conditions: cited from earlier work
Description: (§3) The reliance on electrostatic interactions between basic amino acids in the chemokine and acidic regions in the receptor N-terminus for chemokine receptor binding is illustrated by a study carried out by Hemmerich et al.. To investigate the influence of charge, hydrophobicity, and aromaticity on binding of CCL2 to its cognate receptor CCR2, this group substituted all surface-exposed residues on CCL2 by alanine. […] In contr ...

CCR2 = conditions: mean ± SD; SD; read-out: binding affinity, Kd, for the WT receptor CCR2; cited from earlier work
Description: as §3

[3] = biological target: fully sulfated version of the CCR1 N-terminal peptide; design: method as in PMID 30567735; conditions: read-out: affinity for the fully sulfated version of the CCR1 N-terminal peptide; cited from earlier work
[4] = system: peptide corresponding to the CCR2 receptor N-terminus; conditions: cited from earlier work
[5] = biological target: T2, chemokine receptor CCR1 (untagged, wild type) (human) (UniProt P32246)
T2 sequence: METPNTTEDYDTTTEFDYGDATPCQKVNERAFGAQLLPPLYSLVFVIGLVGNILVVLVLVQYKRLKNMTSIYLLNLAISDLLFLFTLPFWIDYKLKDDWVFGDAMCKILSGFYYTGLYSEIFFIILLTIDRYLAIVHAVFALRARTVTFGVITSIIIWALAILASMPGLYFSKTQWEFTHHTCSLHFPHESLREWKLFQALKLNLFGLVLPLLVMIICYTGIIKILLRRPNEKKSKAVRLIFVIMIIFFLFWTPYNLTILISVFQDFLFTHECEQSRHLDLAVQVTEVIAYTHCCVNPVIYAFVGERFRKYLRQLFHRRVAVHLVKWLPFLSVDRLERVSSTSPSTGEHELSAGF

[6] = biological target: chemokine receptor CCR5 (untagged, wild type) (human) (UniProt P51681)
[7] = biological target: T3, FAM-labelled peptide corresponding to the naked (unmodified) CCR1 N-terminus (human, 5,6-carboxyfluorescein (5,6-FAM) on the N-terminus); test: fluorescence polarisation; FAM-labelled receptor N-terminal peptide as probe at 250 nM in FP buffer (1:3, PBS:MilliQ), black 384-well plate; basic peptide titrated in a two-fold series, 12.21 nM to 100 µM (told for C21TP^81-111); triplicates; Kd fitted in GraphPad Prism 9; conditions: both partners purified
T3 construct: first printed residue of the probe; stretch of the N-terminus of the chemokine receptor CCR1, not sulfated, not glycosylated; also called CCR1 N-terminal peptide; CCR1 probe
T3 peptide: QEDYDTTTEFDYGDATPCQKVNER

Chain of chemokine receptor CCR5 (untagged, wild type) (human) (P51681 whole entry): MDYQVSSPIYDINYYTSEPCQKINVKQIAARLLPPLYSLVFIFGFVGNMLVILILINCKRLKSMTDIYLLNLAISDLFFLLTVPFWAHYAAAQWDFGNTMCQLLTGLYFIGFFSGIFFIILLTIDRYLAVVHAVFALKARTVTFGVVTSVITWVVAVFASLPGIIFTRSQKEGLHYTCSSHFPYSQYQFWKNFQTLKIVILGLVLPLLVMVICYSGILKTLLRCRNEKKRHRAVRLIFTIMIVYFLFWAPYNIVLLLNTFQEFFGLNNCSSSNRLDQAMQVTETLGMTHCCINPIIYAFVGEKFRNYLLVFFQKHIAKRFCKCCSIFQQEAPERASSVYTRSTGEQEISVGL
Chain of CCL2 (Homo sapiens) (P13500 24-99): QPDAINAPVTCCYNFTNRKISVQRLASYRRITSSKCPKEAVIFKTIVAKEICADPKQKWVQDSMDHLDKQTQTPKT
Chain of CCL7 (Homo sapiens) (P80098 24-99): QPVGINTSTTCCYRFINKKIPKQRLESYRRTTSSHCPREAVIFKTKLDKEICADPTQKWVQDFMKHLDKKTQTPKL
Chain of CCL5 (Homo sapiens) (P13501 24-91): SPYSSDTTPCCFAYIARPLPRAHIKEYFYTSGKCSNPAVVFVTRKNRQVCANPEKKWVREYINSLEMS

## human beta defensin 2 (GIGDPVTCLKSGAICHPVFCPRRYKQIGTCGLPGTKCCKKP; ends and bridges not checked; cysteine pairing not given here) [hBD2, human anti-microbial / host defense peptide, from Caslo, reference compound]
CCR1
  boosting of CCL5-induced Gαi signaling via CCR1: as efficient in boosting signaling via CCR1 by CCL5 and CCL7 as C21TP^81-111
  boosting of CCL7-induced Gαi signaling via CCR1: as efficient in boosting signaling via CCR1 by CCL5 and CCL7 as C21TP^81-111
  effect on CCL3-induced Gαi signaling via CCR1: not affected
Naked CCR1 N-terminus
  binding to the naked CCR1 N-terminus: bind in a dose-dependent manner
Naked CCR5 N-terminus
  binding to the naked CCR5 N-terminus: neither of the HDPs bound

## CCR1 N-terminus (from UniProt P32246)
CCL5 (Homo sapiens)
  Kd: 100 nM
CCL7 (Homo sapiens)
  Kd: 100 nM
CCL2 (Homo sapiens) [1]
  Kd: 100 nM

## CCR2 (from UniProt P41597)
CCL2 (Homo sapiens) [2]
  Kd: > 3 nM

## CCL2: human chemokine from Peprotech
CCR1; M1-tagged CCR1, HEK293 WT cells
  Gαi signaling response of M1-CCR1 to ligand: to a minor degree
CCR2 D25A/D27A mutant
  reduction in affinity, D25A/D27A mutant versus WT CCR2: approximately 50 fold
CCR2 D25A/D27A mutant; read-out: binding affinity, Kd, for the D25A/D27A mutant version of CCR2
  Kd: ≥ 3 nM
CCR2
  Kd: 0.066 ± 0.01 nM
[3]
  Kd: 100 nM

## histatin1: human host defense peptide, less basic than hBD2, from Caslo (DSHEKRHHGYRRKFHEKHHSHREFPFYGDYGSNYLYDN) [reference compound]
CCR1
  boosting of CCL5-induced Gαi signaling via CCR1: also boosted the potency of both these chemokines, although to a lesser extent
  boosting of CCL7-induced Gαi signaling via CCR1: also boosted the potency of both these chemokines, although to a lesser extent
  effect on CCL3-induced Gαi signaling via CCR1: not affected
Naked CCR1 N-terminus
  binding to the naked CCR1 N-terminus: bind in a dose-dependent manner
Naked CCR5 N-terminus
  binding to the naked CCR5 N-terminus: neither of the HDPs bound

## CCL7: human chemokine from Peprotech
CCR1; HEK293 DeltaSia and sC
  Gαi signaling via CCR1 in DeltaSia and sC cells compared to WT cells: persists in DeltaSia and sC to almost the same high level as observed in WT cells
[3]
  Kd: 100 nM
[4]
  increase of chemokine binding by tyrosine sulfation of the CCR2 N-terminus peptide: up to 36 fold

## Human CCL5 (from UniProt P13501 24-91) (ligand)
[5]
  LogEC50 of CCL5-induced Gαi signaling (CAMYEL cAMP BRET) via CCR1 in CHO GAG-minus cells: -9.42
  LogEC50 of CCL5-induced Gαi signaling (CAMYEL cAMP BRET) via CCR1 in CHO GAG-plus (WT) cells: -8.89
[6]
  LogEC50 of CCL5-induced Gαi signaling (CAMYEL cAMP BRET) via CCR5 in CHO GAG-minus cells: -9.63
  LogEC50 of CCL5-induced Gαi signaling (CAMYEL cAMP BRET) via CCR5 in CHO GAG-plus (WT) cells: -7.52

B1: C21TP^81-111, basic C-terminal peptide of the chemokine CCL21 (last 31 aa, residues 81-111) (peptide, UniProt O00585 104-134, looked up)
peptide: RKDRGASKTGKKGKGSKGCKRTERSQTPKGP
notes: also called C-terminal peptide of CCL21; source: bought: Caslo (Lyngby, Denmark)
[7]
  Kd: ~2890 nM
